Results as given in the supplement of paper PMC9732359.
± gives the uncertainty stated by the source.

Test: protein stability index of a GFP-peptide fusion (yeast GPS) (PSI 1-4); higher = more stable; sorted into four equal gates, so the index is relative within each strain
How it was run: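 The protein stability index combines read frequencies across sorting gates, each weighted by its gate number and then summed. To obtain those frequencies, a pooled yeast library of GFP fusions to tiled 17-residue yeast protein peptides, on a plasmid also expressing Cherry, was grown to mid-log phase in leucine-free medium. The cells were sorted into four equal gates by GFP/Cherry ratio before plasmid amplification by PCR and Illumina sequencing.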

Sequence | protein stability index (doa10∆) | protein stability index (pdr5∆) | protein stability index (san1∆) | protein stability index (ubr1∆)
GLIAARRTGLLRGSQKT [RPL2A] | 3.04 ± 0.12 | 3.08 ± 0.11 | 2.88 ± 0.11 | 2.78 ± 0.11
NSFIKANLPWLGKAQNW [RPN2] | – | 2.6 ± 0.13 | – | –
STSNTPSPPNVIITDGT [YDL088C/ASM4] | 2.79 ± 0.031 | 2.95 ± 0.031 | 2.9 ± 0.035 | 2.956 ± 0.029
LNVVMKNLERLRGEYND [SMC4] | 3.26 ± 0.092 | 3.49 ± 0.11 | 3.37 ± 0.068 | 3.66 ± 0.13
RILKNKAEYLKNCPITQ [RPC40] | 2.96 ± 0.052 | 3.12 ± 0.048 | 3.02 ± 0.04 | 2.83 ± 0.037
DIGKEMSLRHFGHLMHY [RPN1] | 1.26 ± 0.049 | 1.25 ± 0.041 | 1.23 ± 0.074 | 1.08 ± 0.037
ASITGTGSNDRCIGDSD [YMR129W/POM152] | 3.11 ± 0.083 | 2.78 ± 0.12 | 2.35 ± 0.11 | 2.88 ± 0.1
GLGVLTHRNKDGTGVRV [FAS1] | 3.12 ± 0.066 | 2.47 ± 0.094 | 3.58 ± 0.082 | 3.27 ± 0.085
PLRMETIPILESDSKAT [DSN1] | 2.14 ± 0.062 | 2.54 ± 0.084 | 2.59 ± 0.14 | 2.27 ± 0.044
IGMSLLMRTFLYTLAQE [SIR3] | 1.82 ± 0.14 | 2.37 ± 0.083 | 1.83 ± 0.1 | 1.76 ± 0.11
RQNRRPELGDKFSSRHG [RET1] | – | 3.4 ± 0.3 | – | 2.63 ± 0.21
VVQDSQTATQLLERGRL [SMC2] | 2.9 ± 0.053 | 2.87 ± 0.08 | 2.81 ± 0.054 | 2.5 ± 0.058
KQINEARDEILPLRLQF [PGD1] | 2.13 ± 0.065 | 2.63 ± 0.077 | 2.4 ± 0.074 | 2.77 ± 0.052
DKVTSQAVNNLIKTLST [RPP1] | 2.53 ± 0.059 | 2.89 ± 0.078 | 2.47 ± 0.074 | 2.62 ± 0.048
QKMAELEAARSEKQNDE [PRP8] | 1.75 ± 0.11 | 1.76 ± 0.085 | 2.23 ± 0.26 | 1.8 ± 0.09
SYINVTFRAVVFKPFLG [RPC25] | 1.52 ± 0.084 | 1.95 ± 0.061 | 2.26 ± 0.079 | 1.94 ± 0.056
IPVEILVRRLSDIKQGY [PRE9] | 2.95 ± 0.08 | 2.72 ± 0.095 | 2.79 ± 0.061 | 2.87 ± 0.06
NHSLQHQNESSAASIPP [RPN4] | 2.94 ± 0.057 | 3 ± 0.058 | 2.83 ± 0.062 | 3.12 ± 0.037
TPSTETAASVFKELCYE [PRE3] | 1.92 ± 0.048 | 2.1 ± 0.052 | 2.29 ± 0.062 | 1.84 ± 0.038
SNKSNSTNESNKSISDE [SSN2] | 3.04 ± 0.077 | 3.05 ± 0.1 | 3.05 ± 0.069 | 3.09 ± 0.087
IEETSAAIKDLDDFGEE [RRP43] | 2.85 ± 0.19 | – | – | –
EETNVDIGVLEEYARRL [SMC4] | – | 3.36 ± 0.24 | 3.64 ± 0.072 | 3.48 ± 0.1
SESDLDEDKNFPRSRSR [ESC2] | 2.98 ± 0.087 | 3.24 ± 0.08 | 3.32 ± 0.059 | 3.28 ± 0.054
LTYDRLEFATIRKGAND [PRE9] | – | – | 2.62 ± 0.24 | –
RRYDRKQSGFGGQTKPV [RPL42A] | 3.08 ± 0.084 | 3.03 ± 0.066 | 2.88 ± 0.056 | 3.148 ± 0.029
LLISYGVSIENENKVII [SRB4] | 2.1 ± 0.096 | 2.36 ± 0.14 | 3.13 ± 0.092 | 2.93 ± 0.12
ISYKKGAASNRTKFVRS [RPL36A] | 3.06 ± 0.1 | 3.2 ± 0.1 | 3.13 ± 0.11 | 3.26 ± 0.22

Sequence | protein stability index (doa10∆) | protein stability index (pdr5∆) | protein stability index (san1∆) | protein stability index (ubr1∆)
MTTWRKLYTKELSVTGS [YMR129W/POM152] | 2.06 ± 0.078 | 1.34 ± 0.072 | 1.41 ± 0.14 | 1.14 ± 0.04
LESGKETALEFLEKEKQ [SMC4] | 3.62 ± 0.12 | 3.46 ± 0.11 | 3.17 ± 0.071 | 3.48 ± 0.079
QYVTQIEQEKQEQQEQD [PRE6] | 2.23 ± 0.064 | 1.93 ± 0.057 | 2.85 ± 0.058 | 1.9 ± 0.045
TKTILSGTDGSTIGILL [SRP72] | 3 ± 0.064 | 2.81 ± 0.062 | 3.06 ± 0.084 | 3.01 ± 0.065
PRRYGKGSRQCRVCSSH [RPS29A] | 2.81 ± 0.055 | 3.01 ± 0.043 | 2.92 ± 0.042 | 2.91 ± 0.038
GYLFKVSALDKCIKYSE [ECM29] | 3.08 ± 0.13 | 2.11 ± 0.09 | 1.95 ± 0.11 | 2 ± 0.074
FGHLMHYGNEHIRRMVP [RPN1] | 1.71 ± 0.042 | 1.82 ± 0.039 | 1.6 ± 0.063 | 1.96 ± 0.034
EVLTYVNYLISNTMYSV [YJL039C/NUP192] | 2.45 ± 0.056 | 2.35 ± 0.054 | 2.45 ± 0.044 | 2.5 ± 0.042
NQVMMDRKIQGWLGALT [ARP7] | 2.84 ± 0.069 | 3.18 ± 0.052 | 3 ± 0.054 | 2.98 ± 0.044
MCGVIVKQYNKKWPQFY [SIN4] | 1.65 ± 0.13 | 1.99 ± 0.096 | 1.62 ± 0.097 | 1.74 ± 0.046
TTNMNVNNCIWALKSSL [RGR1] | 2.26 ± 0.068 | 1.32 ± 0.065 | 1.36 ± 0.21 | 1.25 ± 0.046
DKLTRVHDKIWCCRSGS [PRE3] | 2.78 ± 0.061 | 2.68 ± 0.068 | 2.67 ± 0.056 | 2.9 ± 0.032
NTSVLMKLKLMIVYYKD [YCS4] | 1.56 ± 0.15 | 1.56 ± 0.12 | 1.32 ± 0.21 | 1.29 ± 0.11
GHSLGEYAALASLADVM [FAS1] | 2.27 ± 0.061 | 2.29 ± 0.057 | 1.92 ± 0.078 | 2.6 ± 0.059
ESRSFSPIPFPPLTYKN [PRP8] | 3.04 ± 0.074 | 3 ± 0.08 | 2.6 ± 0.058 | 2.62 ± 0.047
QWFLQYQNQFVEFCRNI [YML103C/NUP188] | 2.48 ± 0.17 | 1.86 ± 0.12 | 1.89 ± 0.17 | 2.24 ± 0.1
PTFVEFILIPLYKIFSY [SNU114] | 1.98 ± 0.045 | 1.73 ± 0.054 | 1.62 ± 0.073 | 1.63 ± 0.044
AKFRLILIESRIHRLAR [RPS13] | 1.52 ± 0.099 | 1.97 ± 0.18 | 1.7 ± 0.18 | 2.5 ± 0.15
PTPAASAPAPAAAAPAP [FAS2] | 2.95 ± 0.1 | 3.05 ± 0.073 | 2.72 ± 0.074 | 3.1 ± 0.079
NDVTRRTVKNILVSVLP [CSL4] | 2.89 ± 0.12 | 3.12 ± 0.1 | 3.11 ± 0.08 | 3.09 ± 0.11
NRQAAASVVPSASSLVI [RPL12A] | 1.73 ± 0.03 | 2.17 ± 0.038 | 1.98 ± 0.049 | 1.83 ± 0.032
ASKVLLKIFLYLESLFA [IRR1] | – | – | 2.02 ± 0.24 | –
TDVLEISKQRTFAVILF [YMR129W/POM152] | 1.93 ± 0.056 | 2.52 ± 0.054 | 2.41 ± 0.058 | 2.21 ± 0.041
GCLHKGKLISNLSSTPM [YML031W/NDC1] | – | 1.81 ± 0.16 | – | 2.05 ± 0.19
NPKYDTSNASMNTTLGS [YAR002W/NUP60] | 3.12 ± 0.045 | 3.15 ± 0.044 | 3.12 ± 0.034 | 3.14 ± 0.047
RHKNKHIQGFPTLGERL [DSN1] | 3.41 ± 0.091 | 3.64 ± 0.13 | 3.37 ± 0.06 | 3.44 ± 0.076
GYDINYISKIGEKIDSN [SWI1] | 3.2 ± 0.11 | 2.98 ± 0.085 | 3.23 ± 0.084 | 2.91 ± 0.11
